Experimental data: US20110138496, “POLYPEPTIDE FOR IMPROVING TOLERANCE TO IRON DEFICIENCY IN PLANTS, AND USE THEREOF” (published 2011)

Assays:
[1] = biological target: T1, IDEF2 NAC domain, MBP fusion (Oryza sativa); test: EMSA; 500 ng fusion protein; competition with 30- or 50-fold excess mutants shows CA[A/C]G(TTT) recognized; settings: tags: MBP (pMAL-c2); label: labeled
T1 chain: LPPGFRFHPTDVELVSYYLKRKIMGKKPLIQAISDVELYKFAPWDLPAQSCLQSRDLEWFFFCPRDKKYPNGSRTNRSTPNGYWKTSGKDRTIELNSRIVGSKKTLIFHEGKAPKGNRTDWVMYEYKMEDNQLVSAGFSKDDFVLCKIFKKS
Procedure: Then, specific binding of IDEF2 to IDE2 was confirmed by the EMSA method. An IDEF2 NAC domain amplified by a primer including the base sequences shown in, respectively, SEQ ID NOS: 64 and 65, was cloned to a pMAL-c2 vector, and was used to produce an IDEF2-MBP fused protein. Then, a labeled […] including the base sequence (SEQ ID NO: 41) including IDE2 was incubated with 500 ng of the IDEF2-MBP fused protein.
Next, competition experiments were carried out by addition of 30-fold or 50-fold excess unlabeled competitors. FIG. 10 and (a) of FIG. 12 show mutations introduced into polynucleotide fragments, which were used as the competitors. The IDE2 probe was incubated with the 30-fold or 50-fold excess unlabeled competitors and 500 ng of the IDEF2-MBP fused protein. FIG. 10 and (b) of FIG. 12 show the result of the competition experiments. As shown in FIG. 10 and (b) of FIG. 12, IDEF2 predominantly recognized a CA[A/C]G(TTT) sequence (SEQ ID NO: 33 or 34) within IDE2.

[2] = biological target: T2, OsVP1 B3-domain fragment, MBP fusion (Oryza sativa, UniProt P37398 P37398:501-726); test: EMSA; no specific binding; settings: tags: MBP (pMAL-c2); label: labeled (EMSA probe)
T2 sequence: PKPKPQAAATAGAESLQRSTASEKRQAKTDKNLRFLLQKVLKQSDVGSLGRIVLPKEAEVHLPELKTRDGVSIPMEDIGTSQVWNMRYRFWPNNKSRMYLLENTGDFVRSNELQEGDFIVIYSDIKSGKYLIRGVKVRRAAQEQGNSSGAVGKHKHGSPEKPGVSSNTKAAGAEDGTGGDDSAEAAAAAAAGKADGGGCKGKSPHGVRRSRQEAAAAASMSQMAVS
Procedure: (§1) Next, the following operation was carried out for gel shift assay. First, partial ORFs containing a B3 DNA-binding domains of the respective candidate proteins were obtained by use of the following primers: a primer including the sequences shown in, respectively, SEQ ID NOS: 52 (forward) and 53 (reverse), for the 501st-726th amino acids of OsVP1; a primer including the sequences shown in, respectively, SEQ ID NOS: 54 (forward) and 55 (reverse), for the 141st-362nd amino acids of AK107456; a primer including the sequences shown in, respectively, SEQ ID NOS: 56 (forward) and 57 (reverse), for the 151st-433rd amino acids of AK072874; a primer including the sequences shown in, respectively, SEQ ID NOS: 58 (forward) and 59 (reverse), for the 1st-289th amino acids of AK109920; and a primer including the sequences shown in, respectively, SEQ ID NOS: 60 (forward) and 61 (reverse), for the 287th-672nd amino acids of AK101356. Then, each of the partial ORFs was inserted into pMAL-c2 (New England Biolabs) so as to be fused in frame to a maltose-binding protein (MBP) gene. By using a plasmid thus obtained, a fused protein of each of the candidate proteins and the MBP was produced in accordance with manufacturer's instructions. […]

[3] = biological target: T3, IDEF1 (AK107456) B3-domain fragment, MBP fusion (Oryza sativa, UniProt Q6Z1Z3 SEQ:141-362); test: EMSA; specific binding; settings: tags: MBP (pMAL-c2); label: labeled (EMSA probe)
T3 chain: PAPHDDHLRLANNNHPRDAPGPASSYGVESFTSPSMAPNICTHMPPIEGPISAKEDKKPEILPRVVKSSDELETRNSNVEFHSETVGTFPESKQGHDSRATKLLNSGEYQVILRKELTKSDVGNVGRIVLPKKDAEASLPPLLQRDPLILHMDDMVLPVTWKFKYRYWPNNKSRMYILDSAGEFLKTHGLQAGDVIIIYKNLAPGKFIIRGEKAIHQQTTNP
Procedure: as §1

[4] = biological target: T4, AK072874 B3-domain fragment, MBP fusion (Oryza sativa, UniProt Q7XKC5 Q7XKC5:151-433); test: EMSA; specific binding; settings: tags: MBP (pMAL-c2); label: labeled (EMSA probe)
T4 sequence: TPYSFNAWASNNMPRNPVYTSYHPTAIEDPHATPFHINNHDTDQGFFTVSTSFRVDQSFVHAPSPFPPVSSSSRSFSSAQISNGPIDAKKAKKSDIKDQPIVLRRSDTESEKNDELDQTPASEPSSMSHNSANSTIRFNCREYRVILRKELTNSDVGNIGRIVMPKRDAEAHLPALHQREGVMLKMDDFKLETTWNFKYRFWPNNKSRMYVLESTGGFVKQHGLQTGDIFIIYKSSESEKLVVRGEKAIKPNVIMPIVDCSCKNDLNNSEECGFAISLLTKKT
Procedure: as §1

[5] = biological target: T3, IDEF1 (AK107456) B3-domain fragment, …; test: competition; 30-fold excess mutated IDE1 competitors; CATGC specifically recognized; settings: tags: MBP (pMAL-c2)
Procedure: as §1

[6] = biological target: T4, AK072874 B3-domain fragment, MBP fusion; test: as above; settings: tags: MBP (pMAL-c2)
Procedure: as §1

B1: IDE2 EMSA probe (dsDNA)
DNA 1: GAGAGTGGGTTGAACGGCAAGTTTCACGCTGTCACTATCGTCCTCG
DNA 2: CGAGGACGATAGTGACAGCGTGAAACTTGCCGTTCAACCCACTCTC
B1: binds [1].

B2: IDE2-IDE1x2 (tandemly duplicated IDE1 probe) (dsDNA)
DNA 1: AAGCTTGAATTCGATATCTTGAACGGCAAGTTTCACGCTGTCACTATCAAGCATGCTTCTTGCTTGAACGGCAAGTTTCACGCTGTCACTATCAAGCATGCTTCTTGCACGCGTCTCGAGTCGCGAATCG
DNA 2: CGATTCGCGACTCGAGACGCGTGCAAGAAGCATGCTTGATAGTGACAGCGTGAAACTTGCCGTTCAAGCAAGAAGCATGCTTGATAGTGACAGCGTGAAACTTGCCGTTCAAGATATCGAATTCAAGCTT
B2: no binding [2]; binds [3]; binds [4].

B3: IDE1 (dsDNA)
DNA 1: ATCAAGCATGCTTCTTGC
DNA 2: GCAAGAAGCATGCTTGAT
B3: binds [5]; binds [6].
